Results: patent publication US20260035464A1 (STAIDSON BIOPHARMA, published 2026)
Changes are numbered by the printed parent chain.

T1: human BTLA extracellular domain with C-terminal 10xHis tag (human, UniProt Q7Z6A9 31-157)
T1 construct: also called HuBTLA-His; His-tag-huBTLA
T1 sequence: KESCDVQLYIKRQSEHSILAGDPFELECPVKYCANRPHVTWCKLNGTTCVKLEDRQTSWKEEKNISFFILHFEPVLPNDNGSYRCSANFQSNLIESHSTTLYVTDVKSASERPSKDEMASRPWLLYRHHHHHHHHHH

T2: extracellular domain of human BTLA with FAS, expressed on Jurkat cells (human, UniProt Q7Z6A9 31-157; P25445 174-335, limits assumed)
T2 sequence (looked up): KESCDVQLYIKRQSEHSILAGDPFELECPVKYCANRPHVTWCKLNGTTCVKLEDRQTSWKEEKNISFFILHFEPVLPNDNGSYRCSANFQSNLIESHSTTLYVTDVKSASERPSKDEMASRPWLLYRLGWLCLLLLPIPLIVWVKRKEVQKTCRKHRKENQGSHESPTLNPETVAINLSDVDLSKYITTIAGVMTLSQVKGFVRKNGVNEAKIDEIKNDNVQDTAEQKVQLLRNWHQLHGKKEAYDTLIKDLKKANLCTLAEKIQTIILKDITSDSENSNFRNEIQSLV

T3: huBTLA as coated in the binding ELISA of Example 3 (tag not stated) (human, UniProt Q7Z6A9 31-157)
T3 construct: Detection was with anti-human IgG Fc
T3 sequence: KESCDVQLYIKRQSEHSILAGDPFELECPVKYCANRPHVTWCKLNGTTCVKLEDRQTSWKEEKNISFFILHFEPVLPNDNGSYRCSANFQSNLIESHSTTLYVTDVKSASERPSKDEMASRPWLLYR

T4: human BTLA extracellular domain with C-terminal mouse IgG2a Fc tag (human; mouse, UniProt Q7Z6A9 31-157)
T4 construct: also called huBTLA with mIgG2a Fc tag; not shown: mouse IgG2a Fc, C-terminal
T4 sequence: T3 sequence

T5: rhesus monkey BTLA extracellular domain protein with His tag (Sino Biological, cat #90250-C08H) (rhesus monkey, UniProt G7MKA9 31-157)
T5 construct: extracellular domain; Bought protein; also called His-tag-rhesus monkey BTLA; not shown: His tag
T5 sequence: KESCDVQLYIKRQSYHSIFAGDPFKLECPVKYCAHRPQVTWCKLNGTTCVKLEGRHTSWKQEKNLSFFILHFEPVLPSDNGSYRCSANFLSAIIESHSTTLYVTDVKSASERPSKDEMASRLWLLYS

B1: humanized anti-BTLA antibody SB2003-4 (antibody, V domains shown)
VH: QITLKESGPTLVKPTQTLTLTCTFSGFSLSTFGMGVSWIRQPPGKALEWLAHIYWDDDKRFNPSLKSRLTITKDTSKNQVVLTMTNMDPVDTATYYCARGNWDGETYFDYWGQGTLVTVSS
VL: DVVMTQSPLSLPVTLGQPASISCKSTQSLLDSDGKTYLNWLQQRPGQSPRSLIYLVSKLDSGVPDRFSGSGSGTDFTLKISRVEAEDVGVYYCWQGTHFPWTFGQGTKVEIK
B2: humanized anti-BTLA antibody SB2003-2 (antibody, V domains shown)
VH: B1 VH
VL: B1 VL with S51R
B3: humanized anti-BTLA antibody SB2003-3 (antibody, V domains shown)
VH: B1 VH
VL: B1 VL with L41F
B4: humanized anti-BTLA antibody SB2003-6 (antibody, V domains shown)
VH: B1 VH with I2V
VL: B1 VL with S51R
B5: humanized anti-BTLA antibody SB2003-7 (antibody, V domains shown)
VH: B1 VH with I2V
VL: B1 VL with L41F
B6: humanized anti-BTLA antibody SB2003-8 (antibody, V domains shown)
VH: B1 VH with I2V
VL: B1 VL
B7: humanized anti-BTLA antibody SB2003-9 (antibody, V domains shown)
VH: B1 VH with R99H
VL: B1 VL with L41F
B8: humanized anti-BTLA antibody SB2003-10 (antibody, V domains shown)
VH: B1 VH with R99H
VL: B1 VL
B9: humanized anti-BTLA antibody SB2003-11 (antibody, V domains shown)
VH: B1 VH with I2V, R99H
VL: B1 VL with L41F
B10: chimeric anti-BTLA antibody 96F11 (antibody, V domains shown)
VH: EVQLQQSGAELVKPGASVELSCTASGFNIKDTYIYWVKQRPEQGLQWIGRIDPANGHTKYDPRFQDKATLTAEISSNTAHLQLNSLTSEDTAVYFCVRGGDHPYYVMDWWGQGTSVTVSS
VL: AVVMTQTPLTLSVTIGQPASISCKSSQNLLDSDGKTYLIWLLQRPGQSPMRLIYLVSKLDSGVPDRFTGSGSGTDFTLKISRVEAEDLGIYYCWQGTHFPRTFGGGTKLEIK

Assays:
[1] = target: T6, human BTLA (Uniprot Q7Z6A9) expressed on cells (human, UniProt Q7Z6A9 31-289); assay: flow cytometry on huBTLA-overexpressing Expi293 cells, MFI
T6 construct: whole, on cells; also called huBTLA-overexpressing Expi293 cells
Protocol: Expi293 cells stably overexpressing huBTLA were incubated with the chimeric anti-BTLA antibodies 83F2 or 86B7 in PBS containing 0.5% BSA, 1 mM EDTA, and 0.1% sodium azide (FACS buffer) for 30 minutes at 4° C. The cells were washed, and then incubated with 10 nM phycoerythrin (PE) conjugated anti-Human Fc Ab (BioLegend, cat #409304) for 20 minutes at 4° C. Cells were washed and then analyzed by flow cytometry with Attune (ThermoFisher Scientific). Data were analyzed with FlowJo software. Antibody binding is represented as median fluorescence intensity (MFI).
FACS based binding assays of humanized anti-BTLA antibodies were performed as described above in Example 3.

[2] = target: T1, human BTLA extracellular domain with …; assay: BLI (Octet RED96), antibody on AHC biosensor, His-tag-huBTLA in solution
Protocol: (§1) The following kinetic assay was performed using anti-human IgG Fc capture (AHC) biosensors (ForteBio) in kinetics buffer (PBS, 0.1% Tween-20 and 1% bovine serum albumin): (a) antibody (2 μg/mL) for 300 sec, (b) baseline for 120 sec, (c) association with purified His-tag-huBTLA (2.5, 0.5 and 0 μg/mL) and His-tag-rhesus monkey BTLA (Sino Biologcal, cat #90250-C08H) (2.5, 0.5 and 0 μg/mL) for 420 sec and (d) dissociation for 1200 sec. Data fitting and analysis was performed with Octet data analysis software 8.0 (ForteBio) using a 1:1 binding model after Savitzky-Golay filtering.
(§2) Binding affinities (monovalent Kd) of humanized anti-BTLA antibodies were determined using Biolayer interferometry on the Octet RED96 instrument (ForteBio) as described above in Example 3, except for (c) association with His-tag-huBTLA ([…]) for 420 sec.

[3] = target: T1, human BTLA extracellular domain with …; assay: BLI (Octet RED96), antibody on AHC biosensor, His-tag-huBTLA in solution; column head prints nM, but Koff/Kon shows the values are in M
Protocol: as §1, §2

[4] = target: T6, human BTLA (Uniprot Q7Z6A9) expressed …; assay: flow cytometry blocking assay on huBTLA-overexpressing Expi293 cells, antibody titrated, soluble human HVEM-mouse IgG2a Fc detected
Protocol: Expi293 cells stably overexpressing huBTLA were incubated with chimeric anti-BTLA antibody 83F2 or 86B7 for 30 minutes at 4° C. The cells were washed, and then incubated with human HVEM-mouse IgG2a Fc recombinant protein (Acro Biosystems, cat #HVM-H5255) at […] concentration for 20 minutes at 4° C. The human HVEM bindings were detected by goat anti-mouse Alexa 488 secondary antibody (ThermoFisher, cat #A-11029). Cells were washed and acquired by flow cytometry with Attune. Data were analyzed with FlowJo software. BTLA binding is represented as MFI.
FACS based blocking assays of humanized anti-BTLA antibodies were performed as described above in Example 3.

[5] = target: T2, extracellular domain of human BTLA with …; assay: cell-based or functional assay
[6] = target: T6, human BTLA (Uniprot Q7Z6A9) expressed …; assay: cell-based or functional assay
[7] = target: T6, human BTLA (Uniprot Q7Z6A9) expressed …; assay: cell-based or functional assay; remark: listed apart in the source
[8] = target: T3, huBTLA as coated in the binding ELISA …; assay: ELISA, huBTLA coated at 0.333 ug/mL, anti-human IgG Fc-AP detection
Protocol: (§3) BTLA binding of purified recombinant chimeric antibodies by ELISA: The huBTLA and rhesus monkey BTLA antigen binding ELISA was performed on the purified recombinant chimeric antibodies. Briefly, 384-well, clear flat bottom high binding plates (Corning, cat #3700) were coated overnight at 4° C. with 0.333 μg/mL of huBTLA or rhesus monkey BTLA in PBS. The following purified process was performed as described in ELISA binding assay in Example 2, except that the secondary antibody was goat anti human IgG Fc-AP (Southern Biotech, cat #2014-04).

[9] = target: T4, human BTLA extracellular domain with …; assay: blocking ELISA, huBTLA-mIgG2a Fc coated; competitor huHVEM-His (2 ug/ml)
Protocol: HVEM blocking by purified recombinant chimeric antibodies by ELISA: Human HVEM (huHVEM) blocking ELISA was performed on purified recombinant chimeric anti-BTLA antibodies. Briefly, 384-well, clear flat bottom high binding plates (Corning, cat #3700) were coated overnight at 4° C. with 0.333 μg/mL purified huBTLA with mIgG2a Fc tag in PBS (coating solution). After removing the coating solution, the plates were blocked by adding blocking buffer and incubated at 37° C. for 1 hour. Plates were then washed 3 times with wash buffer. Serial dilution of purified chimeric antibodies in PBS were added to individual well followed by incubation at 37° C. for 1 hour. Plates were washed 3 times with wash buffer. Then 30 μL per well of 2 μg/ml human HVEM with His tag (Sino Biological, cat #10334-H08H) in assay buffer was added into the reaction and incubated for 1 hour. Plates were washed 3 times with wash buffer. Then 30 μL per well of mouse anti-his-AP (Southern Biotech, cat: 4603-04) at 1:500 dilution in ELISA diluent was added, and incubated at 37° C. for 30 min, then the plates were washed 5 times with wash buffer and developed for 30 minutes with 30 μL per well of pNPP substrate. Plates were analyzed with a Bio-TEK at 405 nm. The blocking IC₅₀ value represents the antibody concentration that inhibited 50% of huHVEM binding to coated human BTLA.

[10] = target: T5, rhesus monkey BTLA extracellular domain …; assay: ELISA, rhesus monkey BTLA coated at 0.333 ug/mL, anti-human IgG Fc-AP detection
Protocol: as §3

[11] = target: T3, huBTLA as coated in the binding ELISA …; assay: ELISA, plate coated with huBTLA, detection with goat anti-human IgG Fc-AP, OD405
Protocol: as §3

[12] = target: T1, human BTLA extracellular domain with …; assay: BLI (Octet RED96), antibody captured on AHC biosensor, His-tag-huBTLA in solution, 1:1 model
Protocol: as §1

[13] = target: T5, rhesus monkey BTLA extracellular domain …; assay: ELISA, plate coated with rhesus monkey BTLA, detection with goat anti-human IgG Fc-AP, OD405
Protocol: as §3

Row | Binder | EC50 (read off the curve) [1] [pM] | koff [2] [s⁻¹] | kon [2] [M⁻¹ s⁻¹] | Kd [3] [pM] | IC50 (read off the curve) [4] [pM] | further results
1 | B1 | ~800 | 9.19e-05 | 307000 | 312 | ~400 | –
2 | B2 | – | 0.000109 | 120000 | 797 | – | –
3 | B3 | ~800 | 9.48e-05 | 291000 | 308 | ~400 | –
4 | B4 | – | 8.06e-05 | 134000 | 604 | – | –
5 | B5 | – | 5.76e-05 | 366000 | 154 | – | –
6 | B6 | – | 8.05e-05 | 418000 | 198 | – | –
7 | B7 | – | 6.5e-05 | 440000 | 148 | – | –
8 | B8 | – | 0.000179 | 356000 | 551 | – | –
9 | B9 | ~800 | 4.99e-05 | 384000 | 128 | ~400 | EC50 of inhibition of huHVEM-Fc-induced apoptosis, Jurkat-huBTLA-FAS cells (ATP luminescence) [5]: 117 pM; EC50 of recovery of IL-2 production, Raji-HVEM/primary human T cell coculture [6]: 2300 pM
10 | B10 | – | – | – | – | – | EC50 of recovery of IL-2 production, Raji-HVEM/Jurkat-BTLA coculture [7]: 2540 pM; EC50 [8]: 48.2 pM; IC50 [9]: 1040 pM; EC50 [10]: 57 pM; EC50 (read off the curve) [11]: ~300 pM; Kd [12]: 1180 pM; koff [12]: 0.000697 s⁻¹; kon [12]: 607000 M⁻¹ s⁻¹; EC50 (read off the curve) [13]: ~400 pM
